# Test results: patent publication US20250243278A1 (SHANGHAI HENLIUS BIOTECH, published 2025)
# Positions count from the first letter of the chain named.
# T1: recombinant human B7H3 extra cellular domain (ECD) protein (human, UniProt Q5ZPR3 29-461)
# T1 construct: also called h-B7H3 ECD; h-B7H3; not shown: C-terminal poly-histidine tag or Fc tag
# T1 sequence: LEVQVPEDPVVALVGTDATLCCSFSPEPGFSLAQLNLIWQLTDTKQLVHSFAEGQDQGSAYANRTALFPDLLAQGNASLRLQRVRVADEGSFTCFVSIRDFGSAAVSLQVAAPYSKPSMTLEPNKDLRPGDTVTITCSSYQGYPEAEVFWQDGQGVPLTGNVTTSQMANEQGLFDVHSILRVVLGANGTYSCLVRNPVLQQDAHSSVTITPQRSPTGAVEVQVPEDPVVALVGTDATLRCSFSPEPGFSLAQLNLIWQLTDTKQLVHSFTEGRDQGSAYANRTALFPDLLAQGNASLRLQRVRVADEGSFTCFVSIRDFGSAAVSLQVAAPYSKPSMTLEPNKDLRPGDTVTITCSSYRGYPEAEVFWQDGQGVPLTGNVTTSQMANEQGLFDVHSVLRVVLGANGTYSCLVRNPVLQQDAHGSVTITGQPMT
# T2: human B7H3 on A498 cells (human, UniProt Q5ZPR3 29-534)
# T2 construct: Endogenous B7H3 of A498 human kidney carcinoma cells; also called B7H3 positive A498 cells; human B7H3+ A498 cells
# T2 sequence: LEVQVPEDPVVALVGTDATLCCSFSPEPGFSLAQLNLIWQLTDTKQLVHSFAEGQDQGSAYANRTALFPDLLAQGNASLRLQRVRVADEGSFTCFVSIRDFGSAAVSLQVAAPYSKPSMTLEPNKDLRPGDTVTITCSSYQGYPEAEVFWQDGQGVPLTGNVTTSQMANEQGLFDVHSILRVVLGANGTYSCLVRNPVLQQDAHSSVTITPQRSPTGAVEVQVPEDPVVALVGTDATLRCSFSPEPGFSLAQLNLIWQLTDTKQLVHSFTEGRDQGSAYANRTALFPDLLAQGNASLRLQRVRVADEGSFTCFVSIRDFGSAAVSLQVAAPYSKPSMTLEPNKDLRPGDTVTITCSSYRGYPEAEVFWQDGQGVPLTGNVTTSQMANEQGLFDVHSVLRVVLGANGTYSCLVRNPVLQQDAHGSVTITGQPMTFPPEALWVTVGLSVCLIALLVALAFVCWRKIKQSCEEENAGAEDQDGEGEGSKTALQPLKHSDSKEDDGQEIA
# B1: 5H8 VHH (VHH)
# VHH: QVKLEESGGGQVQAGDSRTLSCVASGRTFSSDSMAWFREAPGKARGFVAVVSRSAGSTWYEDSVKGRFTISRDNAKNTVYLQMNSLKPEDTAVYYCAATDIATMPWLMVSSRYDYWGQGTQVTVSS
# notes: VHH secreted into SS320 supernatant from phagemid pADL-23c, as screened by ELISA
# B2: 19c10-V2 (Fc fusion)
# chain: EVQLVESGGGLVQPGGSLRLSCAASGSTFSKYAMGWFRQAPRKARGFVGAVTSAGSTWYADSVKGRFTISRDNSKNTLYLQMNSLRAEDTAVYYCAATTIATMPWLMVSSRYAYWGQGTLVTVSS
# notes: Humanized FR1, FR3 and FR4; also called humanized 19c10 clone; not shown: purified by protein A and detected with anti-human IgG, so probably a human Fc
# B3: 19c10-V3 (Fc fusion, not shown: a dimerising Fc or GST)
# chain: B2 chain with R42G
# notes: FR2 humanized further from 19c10-V2; detected with anti-human IgG; also called humanized 19c10 clone
# B4: Reference Ab 4 (antibody, V domains shown)
# VH: QVQLQQPGAELVKPGASVKLSCKASGYSFTSYWMHWVKQRPGQGLEWIGMIHPNSGSNNYNEKFKSKATLTVDKSSNTAYMQLSSLTSEDSAVYYCARRLGLHFDYWGQGTTLTVSS
# VL: DIVMTQSQKFMSTPVGDRVSITCKASQNVGTAVAWYQQKPGQSPKLLIYSASNRYTGVPDRFTGSGSGTDFTLTISNMQSEDLADYFCQQYSSYPYTFGGGTKLEIK
# B5: 14C4 VHH (VHH)
# VHH: QVQLVESGGGVVQAGGSLRLSCAASGRTFSSYGMGWFRQAPRKARGFVGAVTSAGSTWYEDSVKGRFTISRDNAKNTVYLQMNSLKPEDTAVYYCAATTIATMPWLMVSSRYAYWGQGTQVTVSS
# notes: VHH secreted into SS320 supernatant, as screened by ELISA
# B6: Reference Ab 2 (an h1702 analog) (antibody, V domains shown)
# VH: QVQLQQPGAELVKPGASVKLSCKASGYTFTSYWMHWVKQRPGQGLEWIGMIHPDSGTTNYNEKFRSKATLTVDKSSSTAYMQLSSLTSEDSAVYYCAVYYGSTYWYFDVWGTGTTVTVSS
# VL: DVVMTQTPLSLPVSLGDQAYISCRSSQSLVHINGNTYLHWYRQKPGQSPKLLIYKVSNRFSGVPDRFSGSGSGTDFTLKISRVEAEDLGVYFCSQSTHFPFTFGSGTKLEIK
# Legend:
# [1] = biological target: T1, recombinant human B7H3 extra cellular …; experiment: ELISA on human B7H3 (h-B7H3 ECD coated plates), OD450
# [2] = biological target: T2, human B7H3 on A498 cells; experiment: flow cytometry, whole cell binding to B7H3+ A498 cells, MFI
# [3] = biological target: T2, human B7H3 on A498 cells; experiment: flow cytometry, whole cell binding to B7H3+ A498 cells, MFI (FITC)
# [4] = biological target: T2, human B7H3 on A498 cells; experiment: flow cytometry, whole cell binding to B7H3+ A498 cells, MFI; fit value printed for the flat curve of the negative control
# [5] = biological target: cynomolgus B7H3 (cynomolgus); experiment: ELISA on cynomolgus B7H3, OD450
# [6] = biological target: T2, human B7H3 on A498 cells; experiment: flow cytometry, whole cell binding to B7H3+ A498 cells, MFI (FITC); remark: listed apart in the source
binder,measurement,setting,value
B1,EC50 (read off the curve),[1],~0.08 µg/mL
B2,EC50,[2],0.537 nM
B3,EC50,[2],1.69 nM
same,EC50,[3],5.52 nM
B4,EC50,[4],40.3 nM
B5,EC50 (read off the curve),[5],~0.06 µg/mL
B6,EC50,[6],0.85 nM
